The target in assay [1] is T1, human TF on the cell surface of tumor cells (human, UniProt P13726 33-295). Kind of assay: cell-based or functional assay.
For assay [2], the target named is T2, murine TF (B16-F10 cells) (murine, UniProt P20352 29-294).
T2 construct: whole, on cells
T2 sequence (looked up): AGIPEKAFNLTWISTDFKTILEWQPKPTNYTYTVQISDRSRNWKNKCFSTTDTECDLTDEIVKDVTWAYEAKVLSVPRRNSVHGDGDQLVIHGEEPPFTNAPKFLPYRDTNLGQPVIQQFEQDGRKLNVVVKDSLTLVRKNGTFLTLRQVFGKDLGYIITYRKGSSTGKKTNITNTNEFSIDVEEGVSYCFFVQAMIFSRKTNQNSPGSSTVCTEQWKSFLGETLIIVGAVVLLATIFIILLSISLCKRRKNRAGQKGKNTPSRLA
Kind of assay: flow cytometry on B16-F10 cells. Background: In flow cytometry, cells or beads pass a laser one at a time.
Source text: After preliminary screening, about 30 hybridoma cells were selected for secondary limiting dilution cloning, and then 6 antibodies were selected for large-scale expression and purification.

The target of assay [3] is T3, extracellular domain of human TF protein (human, UniProt P13726 34-251).
T3 construct: range 34-251; Limits 34-251 are stated for the immunogen; also called the extracellular domain protein of TF; TF antigen
Kind of assay: ELISA, coated TF extracellular domain. How it is done: (§1) The antigen (the extracellular domain protein of TF) was diluted to 0.5 μg/mL with a coating solution, and was used to coat an ELISA plate overnight, at 100 μL/well and 4° C. The excessive antigen was removed by washing. The plate was blocked with 2% BSA at room temperature for 2 h, and then each of the 3-fold serial diluted monoclonal antibodies was added at 100 μL/well, and was incubated for 2 h at room temperature. The unbound antibodies were removed by washing, and an appropriate concentration of horseradish peroxidase-labeled anti-mouse secondary antibody was added at 100 μL/well, and incubated for 1 h at room temperature. The unbound secondary antibody was removed by washing, TMB chromogenic solution was added, and the color was developed to an appropriate color depth. 2M H₂SO₄ was added at 50 μL/well, to stop the chromogenic reaction, the absorbance at 450 nm was then determined, and the data was analyzed.
(In general: ELISA stands for enzyme-linked immunosorbent assay.)

Assay [4] deals with T1, human TF on the cell surface of tumor …. Kind of assay: flow cytometry on MDA-MB-231 cells.
For assay [5] the target is unchanged. Kind of assay: flow cytometry on U87MG cells. As to the method:
(§2) The cells were washed with PBS twice to remove the unbound primary antibody, and the target cells were incubated with 200 μL PE-labeled secondary antibody (2 μg/mL) at 4° C. for 30 min. The cells were washed with PBS twice to remove the unbound secondary antibody, and finally the cells were re-suspended in 400 μL PBS.

Assay [6] shares this target. Kind of assay: flow cytometry on BxPC-3 cells. As to the method:
as §2

Assay [7] has the same target. Kind of assay: flow cytometry on HCC1806 cells.
For assay [8], the target named is T3, extracellular domain of human TF protein. Kind of assay: ELISA, coated TF extracellular domain. As to the method:
as §1
Firstly, the 20 humanized antibodies were determined for their affinity for the extracellular domain protein of TF by ELISA binding assay (The experimental method refers to Step \textcircled{4} of Example 1).
This is another data set of the same source.

For assay [9], the target named is T1, human TF on the cell surface of tumor …. Kind of assay: flow cytometry on MDA-MB-231 cells, antibody at 1 µg/mL. As to the method:
as §2

For assay [10] the target is unchanged. Kind of assay: flow cytometry on MDA-MB-231 cells, antibody at 10 µg/mL. The arrangement: reference not given here. As to the method: as §2

Where a chain is given by its changes, count along the chain named. Read-outs that look alike come from different tables or passages of the source.

B1: TF-mAb-SC1 (antibody, V domains shown)
VH: QVQLQQPGAELVRPGASVKLSCKASGYSFISYWMNWVKQRPGQGLEWIGMIYPADSETRLNQKFKDKATLTVDKSSSTAYMQLSSPTSEDSAVYYCAREDYGSSDYWGQGTTLTVSS
VL: EILLTQSPAIIAASPGEKVTITCSASSSVSYMNWYLQKPGSSPKIWIYGISNLASGVPARFSGSGSGTSFSFTINSMETEDVATYYCQQKSSFPWTFGGGTKLEIK
One may read the EC50 as the concentration needed to bring the measured effect to its halfway point. Turning to B1, in assay [1], the “IC50 of inhibiting FXa production (BxPC-3 cells)” value amounted to 9 nM. Besides, the “IC50 of inhibiting FXa production (MDA-MB-231 cells)” value in [1] came to 6.4 nM. The binding result in assay [2] is “no binding (tested: 10 µg/mL)”. Also, the EC50 is around 0.019 nM in [3], 2.5 nM in assay [4], 1.6 nM in assay [5] and 2.6 nM in assay [6].

B2: TF-mAb-Ch (antibody, V domains shown)
VH: B1 VH
VL: B1 VL
notes: Variable regions of TF-mAb-SC1 cloned into vectors with human IgG1 heavy chain constant region and human kappa constant region; also called human-mouse chimeric antibody; chimeric antibody TF-mAb-Ch
B2: the EC50 in assay [7] was 2.1 nM; in assay [8], 0.01 nM; in [3] it was around 0.011 nM; in assay [4], 2.3 nM. Besides, the MFI in assay [9] was 3370; in [10], 3540.

B3: TF-mAb-H44 (antibody, V domains shown)
VH: EVQLVQSGAEVKKPGESLKISCKGSGYSFTSYWMNWVRQMPGKGLEWMGMIYPADSETRLNQKFKDQATLSVDKSISTAYLQWSSLKASDTAMYYCAREDYGSSDYWGQGTTVTVSS
VL: EIVLTQSPDFQSVTPKEKVTITCSASSSVSYMNWYQQKPDQSPKIWIYGISNLASGVPSRFSGSGSGTDFTLTINSLEAEDAATYYCQQKSSFPWTFGGGTKVEIK
notes: Humanized; also called humanized antibody TF-mAb-H44
As for B3, in [8], the 50% effective concentration (EC50) was 0.012 nM. The MFI was found to be 3200 in assay [9] and 3430 in [10].

B4: TF-mAb-H47 (antibody, V domains shown)
VH: QVQLVQSGAEVKKPGASVKVSCKASGYSFISYWMNWVRQAPGQGLEWIGMIYPADSETRLNQKFKDRATLTVDKSTSTAYMELSSLRSEDTAVYYCAREDYGSSDYWGQGTTVTVSS
VL: B3 VL
notes: Humanized
Molecule B4 yielded an EC50 in assay [8] of 0.013 nM. Moreover, the MFI was determined as 3000 in [9] and 3150 in [10].

B5: TF-mAb-H48 (antibody, V domains shown)
VH: QVQLVQSGSELKKPGASVKVSCKASGYSFISYWMNWVRQAPGQGLEWIGMIYPADSETRLNQKFKDRAVLSVDKSVSTAYLQICSLKAEDTAVYYCAREDYGSSDYWGQGTTVTVSS
VL: B3 VL
notes: Humanized
B5 showed a concentration giving a half-maximal response (EC50) in [8] of 0.0153 nM. The MFI amounted to 2610 in assay [9] and 2900 in assay [10].

B6: TF-mAb-H46 (antibody, V domains shown)
VH: B3 VH with R38K, Q67K
VL: B3 VL
notes: Humanized
As to B6, the EC50 in [8] is 0.0119 nM. For the same molecule, the MFI is 3120 in [9] and 3410 in [10].
